Laboratory results as given in IntAct's records for PubMed 35266954.

B1: Probable E3 ubiquitin-protein ligase MID2 (Homo sapiens), Q9UJV3 (parent)
chain: MGESPASVVLNASGGLFSLKMETLESELTCPICLELFEDPLLLPCAHSLCFSCAHRILVSSCSSGESIEPITAFQCPTCRYVISLNHRGLDGLKRNVTLQNIIDRFQKASVSGPNSPSESRRERTYRPTTAMSSERIACQFCEQDPPRDAVKTCITCEVSYCDRCLRATHPNKKPFTSHRLVEPVPDTHLRGITCLDHENEKVNMYCVSDDQLICALCKLVGRHRDHQVASLNDRFEKLKQTLEMNLTNLVKRNSELENQMAKLIQICQQVEVNTAMHEAKLMEECDELVEIIQQRKQMIAVKIKETKVMKLRKLAQQVANCRQCLERSTVLINQAEHILKENDQARFLQSAKNIAERVAMATASSQVLIPDINFNDAFENFALDFSREKKLLEGLDYLTAPNPPSIREELCTASHDTITVHWISDDEFSISSYELQYTIFTGQANFISKSWCSWGLWPEIRKCKEAVSCSRLAGAPRGLYNSVDSWMIVPNIKQNHYTVHGLQSGTRYIFIVKAINQAGSRNSEPTRLKTNSQPFKLDPKMTHKKLKISNDGLQMEKDESSLKKSHTPERFSGTGCYGAAGNIFIDSGCHYWEVVMGSSTWYAIGIAYKSAPKNEWIGKNASSWVFSRCNSNFVVRHNNKEMLVDVPPHLKRLGVLLDYDNNMLSFYDPANSLHLHTFDVTFILPVCPTFTIWNKSLMILSGLPAPDFIDYPERQECNCRPQESPYVSGMKTCH

Variants of: B1
Details: with lrrk2_human LRRK2, Q5S007
lrrk2_human LRRK2, Q5S007, sequence (Q5S007 whole entry): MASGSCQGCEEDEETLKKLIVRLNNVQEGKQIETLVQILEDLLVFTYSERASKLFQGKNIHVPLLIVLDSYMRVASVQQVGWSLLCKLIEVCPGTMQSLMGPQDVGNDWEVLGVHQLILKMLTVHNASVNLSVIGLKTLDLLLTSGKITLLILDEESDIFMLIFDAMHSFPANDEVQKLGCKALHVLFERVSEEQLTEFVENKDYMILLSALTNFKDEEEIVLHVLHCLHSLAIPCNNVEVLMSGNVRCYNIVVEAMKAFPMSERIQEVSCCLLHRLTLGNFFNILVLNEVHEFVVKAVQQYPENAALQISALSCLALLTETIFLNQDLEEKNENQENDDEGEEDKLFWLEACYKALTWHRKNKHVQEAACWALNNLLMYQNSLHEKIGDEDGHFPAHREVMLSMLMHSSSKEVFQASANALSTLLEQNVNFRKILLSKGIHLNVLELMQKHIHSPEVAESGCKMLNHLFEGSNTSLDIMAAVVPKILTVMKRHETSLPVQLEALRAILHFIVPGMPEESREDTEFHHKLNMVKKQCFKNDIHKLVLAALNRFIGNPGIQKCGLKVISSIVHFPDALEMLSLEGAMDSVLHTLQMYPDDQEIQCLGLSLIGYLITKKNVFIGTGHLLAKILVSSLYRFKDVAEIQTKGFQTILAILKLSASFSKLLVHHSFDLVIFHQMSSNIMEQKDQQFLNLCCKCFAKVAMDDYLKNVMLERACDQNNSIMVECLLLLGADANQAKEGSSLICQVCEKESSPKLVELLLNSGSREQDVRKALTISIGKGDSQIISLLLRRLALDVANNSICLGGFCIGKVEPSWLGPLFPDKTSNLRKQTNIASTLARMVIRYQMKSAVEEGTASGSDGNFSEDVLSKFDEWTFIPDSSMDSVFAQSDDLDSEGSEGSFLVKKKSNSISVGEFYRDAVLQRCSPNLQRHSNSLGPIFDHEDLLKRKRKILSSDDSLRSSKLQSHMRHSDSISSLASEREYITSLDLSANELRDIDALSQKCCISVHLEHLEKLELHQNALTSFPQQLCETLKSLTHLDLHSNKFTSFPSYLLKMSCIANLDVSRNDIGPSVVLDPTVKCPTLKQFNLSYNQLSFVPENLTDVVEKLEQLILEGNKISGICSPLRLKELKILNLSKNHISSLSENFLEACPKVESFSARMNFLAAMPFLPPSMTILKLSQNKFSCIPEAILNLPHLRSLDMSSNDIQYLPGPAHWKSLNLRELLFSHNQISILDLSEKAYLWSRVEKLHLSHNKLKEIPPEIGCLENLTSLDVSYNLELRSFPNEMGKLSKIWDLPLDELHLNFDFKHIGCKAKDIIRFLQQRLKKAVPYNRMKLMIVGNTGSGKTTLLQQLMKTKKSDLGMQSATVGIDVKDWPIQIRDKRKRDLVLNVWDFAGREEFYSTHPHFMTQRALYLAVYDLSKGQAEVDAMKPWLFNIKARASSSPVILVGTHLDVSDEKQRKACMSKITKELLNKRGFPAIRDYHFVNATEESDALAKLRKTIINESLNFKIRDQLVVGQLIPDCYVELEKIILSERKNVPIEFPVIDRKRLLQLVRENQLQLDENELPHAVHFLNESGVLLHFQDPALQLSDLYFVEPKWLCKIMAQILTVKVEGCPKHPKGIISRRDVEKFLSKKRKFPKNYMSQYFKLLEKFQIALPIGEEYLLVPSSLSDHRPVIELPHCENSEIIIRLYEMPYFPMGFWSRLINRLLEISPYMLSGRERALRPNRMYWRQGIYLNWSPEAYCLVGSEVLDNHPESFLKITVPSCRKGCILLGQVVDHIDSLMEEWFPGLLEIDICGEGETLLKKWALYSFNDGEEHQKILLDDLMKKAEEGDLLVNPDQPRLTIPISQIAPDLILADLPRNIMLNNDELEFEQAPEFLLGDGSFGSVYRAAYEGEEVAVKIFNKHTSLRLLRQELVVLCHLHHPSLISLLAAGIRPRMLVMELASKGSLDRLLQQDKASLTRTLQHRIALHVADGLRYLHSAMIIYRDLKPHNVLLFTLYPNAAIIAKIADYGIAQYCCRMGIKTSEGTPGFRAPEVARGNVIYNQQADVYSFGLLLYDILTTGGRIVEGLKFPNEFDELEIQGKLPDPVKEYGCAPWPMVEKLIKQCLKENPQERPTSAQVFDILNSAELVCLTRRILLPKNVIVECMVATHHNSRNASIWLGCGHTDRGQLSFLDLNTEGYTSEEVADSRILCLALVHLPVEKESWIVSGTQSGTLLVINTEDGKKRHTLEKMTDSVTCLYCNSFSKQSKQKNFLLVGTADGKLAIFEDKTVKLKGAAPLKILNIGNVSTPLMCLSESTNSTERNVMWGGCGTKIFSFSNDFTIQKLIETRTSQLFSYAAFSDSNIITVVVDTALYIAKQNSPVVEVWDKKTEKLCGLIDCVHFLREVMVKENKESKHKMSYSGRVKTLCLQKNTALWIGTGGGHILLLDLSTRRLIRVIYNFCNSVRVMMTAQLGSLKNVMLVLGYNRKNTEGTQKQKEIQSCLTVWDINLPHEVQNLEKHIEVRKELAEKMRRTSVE

**Q.** Which “effect of a mutation on the interaction” value does the source give for F348A;L349A;Q350A;L396A;D397A;Y398A here?
**A.** with no effect
